B1: Refmab #3 (antibody, V domains shown)
VH: QVQLVQSGAEVKKPGSSVKVSCKASGYTFTDYNMHWVRQAPGQGLEWIGYIYPYNGGTGYNQKFKSKATITADESTNTAYMELSSLRSEDTAVYYCARGRPAMDYWGQGTLVTVSS
VL: DIQMTQSPSSLSASVGDRVTITCRASESVDNYGISFMNWFQQKPGKAPKLLIYAASNQGSGVPSRFSGSGSGTDFTLTISSLQPDDFATYYCQQSKEVPWTFGQGTKVEIK
notes: The alanine scan used IgG or Fab
B2: Refmab #4 (antibody, V domains shown)
VH: QVQLVQSGAEVKKPGESVKVSCKASGYTFTNYGMNWVKQAPGQGLEWMGWINTYTGEPTYADKFQGRVTMTTDTSTSTAYMEIRNLGGDDTAVYYCARWSWSDGYYVYFDYWGQGTSVTVSS
VL: DIVMTQSPDSLTVSLGERTTINCKSSQSVLDSSTNKNSLAWYQQKPGQPPKLLLSWASTRESGIPDRFSGSGSGTDFTLTIDSPQPEDSATYYCQQSAHFPITFGQGTRLEIK
notes: as for B1

Experiments:
Experiment in all cases: alanine scan, flow cytometry, HEK293-T;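 further: antibody binding to each alanine-substituted CD33 mutant expressed transiently in HEK293-T, read as fluorescence minus background, mean of duplicates, relative to wild-type CD33 set as 100%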
human CD33 G256A = human CD33 G256A (human, UniProt P20138 18-364)
human CD33 A290S = human CD33 A290S (human, UniProt P20138 18-364)
human CD33 G245A = human CD33 G245A (human, UniProt P20138 18-364)
human CD33 T292A = human CD33 T292A (human, UniProt P20138 18-364)
human CD33 S248A = human CD33 S248A (human, UniProt P20138 18-364)
human CD33 H317A = human CD33 H317A (human, UniProt P20138 18-364)
human CD33 G304A = human CD33 G304A (human, UniProt P20138 18-364)
human CD33 A289S = human CD33 A289S (human, UniProt P20138 18-364)
human CD33 R287A = human CD33 R287A (human, UniProt P20138 18-364)
human CD33 C274A = human CD33 C274A (human, UniProt P20138 18-364)
human CD33 R296A = human CD33 R296A (human, UniProt P20138 18-364)
human CD33 K283A = human CD33 K283A (human, UniProt P20138 18-364)
human CD33 L271A = human CD33 L271A (human, UniProt P20138 18-364)
human CD33 P244A = human CD33 P244A (human, UniProt P20138 18-364)
human CD33 T302A = human CD33 T302A (human, UniProt P20138 18-364)
human CD33 K313A = human CD33 K313A (human, UniProt P20138 18-364)
human CD33 A306S = human CD33 A306S (human, UniProt P20138 18-364)
human CD33 L316A = human CD33 L316A (human, UniProt P20138 18-364)
human CD33 H259A = human CD33 H259A (human, UniProt P20138 18-364)
human CD33 V294A = human CD33 V294A (human, UniProt P20138 18-364)
human CD33 V294A, sequence (P20138 18-364 V294A limits assumed): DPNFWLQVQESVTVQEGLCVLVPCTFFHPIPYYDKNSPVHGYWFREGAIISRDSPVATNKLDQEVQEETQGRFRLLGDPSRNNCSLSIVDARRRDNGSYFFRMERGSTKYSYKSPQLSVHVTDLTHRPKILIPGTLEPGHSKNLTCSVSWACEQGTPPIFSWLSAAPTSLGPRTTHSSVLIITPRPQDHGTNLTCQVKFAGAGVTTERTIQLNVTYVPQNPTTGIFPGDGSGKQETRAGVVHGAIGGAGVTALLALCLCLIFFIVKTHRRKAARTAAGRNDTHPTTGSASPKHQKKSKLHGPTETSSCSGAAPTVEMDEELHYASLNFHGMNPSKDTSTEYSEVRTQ

human CD33 H317A, sequence (P20138 18-364 H317A limits assumed): as the sequence (P20138 18-364 V294A limits assumed) above, with A277V, H300A counted along it
human CD33 C274A, sequence (P20138 18-364 C274A limits assumed): as the sequence (P20138 18-364 V294A limits assumed) above, with C257A, A277V counted along it
human CD33 A306S, sequence (P20138 18-364 A306S limits assumed): as the sequence (P20138 18-364 V294A limits assumed) above, with A277V, A289S counted along it
human CD33 A289S, sequence (P20138 18-364 A289S limits assumed): as the sequence (P20138 18-364 V294A limits assumed) above, with A272S, A277V counted along it
human CD33 T302A, sequence (P20138 18-364 T302A limits assumed): as the sequence (P20138 18-364 V294A limits assumed) above, with A277V, T285A counted along it
human CD33 G245A, sequence (P20138 18-364 G245A limits assumed): as the sequence (P20138 18-364 V294A limits assumed) above, with G228A, A277V counted along it
human CD33 K283A, sequence (P20138 18-364 K283A limits assumed): as the sequence (P20138 18-364 V294A limits assumed) above, with K266A, A277V counted along it
human CD33 R287A, sequence (P20138 18-364 R287A limits assumed): as the sequence (P20138 18-364 V294A limits assumed) above, with R270A, A277V counted along it
human CD33 R296A, sequence (P20138 18-364 R296A limits assumed): as the sequence (P20138 18-364 V294A limits assumed) above, with A277V, R279A counted along it
human CD33 A290S, sequence (P20138 18-364 A290S limits assumed): as the sequence (P20138 18-364 V294A limits assumed) above, with A273S, A277V counted along it
human CD33 T292A, sequence (P20138 18-364 T292A limits assumed): as the sequence (P20138 18-364 V294A limits assumed) above, with T275A, A277V counted along it
human CD33 K313A, sequence (P20138 18-364 K313A limits assumed): as the sequence (P20138 18-364 V294A limits assumed) above, with A277V, K296A counted along it
human CD33 H259A, sequence (P20138 18-364 H259A limits assumed): as the sequence (P20138 18-364 V294A limits assumed) above, with H242A, A277V counted along it
human CD33 G256A, sequence (P20138 18-364 G256A limits assumed): as the sequence (P20138 18-364 V294A limits assumed) above, with G239A, A277V counted along it
human CD33 L316A, sequence (P20138 18-364 L316A limits assumed): as the sequence (P20138 18-364 V294A limits assumed) above, with A277V, L299A counted along it
human CD33 P244A, sequence (P20138 18-364 P244A limits assumed): as the sequence (P20138 18-364 V294A limits assumed) above, with P227A, A277V counted along it
human CD33 L271A, sequence (P20138 18-364 L271A limits assumed): as the sequence (P20138 18-364 V294A limits assumed) above, with L254A, A277V counted along it
human CD33 G304A, sequence (P20138 18-364 G304A limits assumed): as the sequence (P20138 18-364 V294A limits assumed) above, with A277V, G287A counted along it
human CD33 S248A, sequence (P20138 18-364 S248A limits assumed): as the sequence (P20138 18-364 V294A limits assumed) above, with S231A, A277V counted along it

Row | Binder | Mean % WT Binding (human CD33 G256A) [% WT binding] | Mean % WT Binding (human CD33 A290S) [% WT binding] | Mean % WT Binding (human CD33 G245A) [% WT binding] | Mean % WT Binding (human CD33 T292A) [% WT binding] | Mean % WT Binding (human CD33 S248A) [% WT binding] | Mean % WT Binding (human CD33 H317A) [% WT binding] | Mean % WT Binding (human CD33 G304A) [% WT binding] | Mean % WT Binding (human CD33 A289S) [% WT binding] | Mean % WT Binding (human CD33 R287A) [% WT binding] | Mean % WT Binding (human CD33 C274A) [% WT binding] | Mean % WT Binding (human CD33 R296A) [% WT binding] | Mean % WT Binding (human CD33 K283A) [% WT binding] | Mean % WT Binding (human CD33 L271A) [% WT binding] | Mean % WT Binding (human CD33 P244A) [% WT binding] | Mean % WT Binding (human CD33 T302A) [% WT binding] | Mean % WT Binding (human CD33 K313A) [% WT binding] | Mean % WT Binding (human CD33 A306S) [% WT binding] | Mean % WT Binding (human CD33 L316A) [% WT binding] | Mean % WT Binding (human CD33 H259A) [% WT binding] | Mean % WT Binding (human CD33 V294A) [% WT binding]
1 | B1 | 94.9 | 97.2 | 127 | 99.6 | 133 | 157 | 121 | 82.8 | 112 | 111 | 92.9 | 90.9 | 135 | 138 | 101 | 137 | 111 | 90.4 | 104 | 95.8
2 | B2 | 104 | 107 | 94.9 | 100 | 99.7 | 82.6 | 95 | 95 | 65.3 | 103 | 106 | 84 | 113 | 100 | 98.2 | 87.7 | 79.3 | 80 | 114 | 97.8
